According to patent publication US5436138A, “Method for protein N-myristoylation” (Washington University, priority 1993, dated 1995):

What was measured:
[1] = system: p60^v-src; conditions: membrane versus cytosolic fractions; cited from earlier work
[2] = compared with myristic acid; cited from earlier work
[3] = substrate: CCCCCCCCCCCCCC(=O)SCCNC(=O)CCNC(=O)[C@H](O)C(C)(C)COP(=O)(O)OP(=O)(O)OC[C@H]1O[C@@H](n2cnc3c(N)ncnc32)[C@H](O)[C@@H]1OP(=O)(O)O; test: cells, lysate or membranes named; conditions: other: fatty acyl-CoA substrate varied, 60 μM GNAAAARR
[4] = substrate: CCCOCCCCCCCCCC(=O)SCCNC(=O)CCNC(=O)[C@H](O)C(C)(C)COP(=O)(O)OP(=O)(O)OC[C@H]1O[C@@H](n2cnc3c(N)ncnc32)[C@H](O)[C@@H]1OP(=O)(O)O; test: coupled in vitro assay for NMT activity, 45 kDa E. coli NMT; format: biochemical, S. cerevisiae; conditions: other: fatty acyl-CoA substrate varied, 60 μM GNAAAARR
Description: (§1) In vitro assay system for NMT activity. To assess the peptide and acyl-CoA substrate specificities of E. coli-derived S. cerevisiae NMT, crude lysates or partially purified enzyme preparations were added to a coupled in vitro assay system [Towler and Glaser, Proc. Natl. Acad. Sci. USA 83, 2812-2816 (1986)]. The first step of this assay involves enzymatic conversion of radiolabeled fatty acids to their CoA thioesters by Pseudomonas acyl-CoA ligase. This ligase is largely nonspecific for fatty acid substrates [Shimizu et al., Anal. Biochem. 107, 193-198 (1980)]. Octapeptide substrates and NMT were then added to produce acylpeptides. Acylpeptides were purified from the reaction mixture by trichloroacetic acid/methanol precipitation and C18 reverse phase HPLC using a linear gradient of acetonitrile in water [Towler and Glaser, Proc. Natl. Acad. Sci. USA 83, 2812-2816 (1986)].
(§2) To obtain a homogenous preparation of the enzyme, E. coli-produced NMT was further purified by Mono S fast protein liquid chromatography (FPLC).
(§3) The peptide Km and Vmax values shown in the above Table I are averages obtained from 4- or 5-point Lineweaver-Burke plots. These plots were produced using data generated in at least three independent in vitro NMT assays. Varying concentrations of peptides were assayed with 15 μM myristate to determine peptide Km and Vmax values. […] Yeast NMT was from a 570 fold purified preparation [Towler et al., Proc. Natl. Acad. Sci. USA 84, 2708-2712 (1987)]. Synthetic peptide substrates are represented by their conventional one letter amino acid code. […] ND=not determined.

[5] = substrate: C[C@H](NC(=O)[C@H](C)NC(=O)[C@H](CC(N)=O)NC(=O)CN)C(=O)N[C@@H](CO)C(=O)N[C@@H](C)C(=O)N[C@@H](CCCNC(=N)N)C(=O)N[C@@H](CCCNC(=N)N)C(N)=O; test: as above; format: biochemical, S. cerevisiae; conditions: other: peptide substrate varied, 15 μM myristate
Description: as §1, §2, §3

[6] = substrate: CCCCCCCCCCCCCCCC(=O)SCCNC(=O)CCNC(=O)[C@H](O)C(C)(C)COP(=O)(O)OP(=O)(O)OC[C@H]1O[C@@H](n2cnc3c(N)ncnc32)[C@H](O)[C@@H]1OP(=O)(O)O; test: as above; format: biochemical, S. cerevisiae; conditions: other: fatty acyl-CoA substrate varied, 60 μM GNAAAARR
Description: as §1, §2, §3

[7] = substrate: C[C@H](NC(=O)[C@H](C)NC(=O)[C@H](C)NC(=O)[C@H](CC(N)=O)NC(=O)CN)C(=O)N[C@@H](C)C(=O)N[C@@H](CCCNC(=N)N)C(=O)N[C@@H](CCCNC(=N)N)C(N)=O; test: coupled in vitro assay for NMT activity, Total E. coli NMT; format: biochemical, S. cerevisiae; conditions: other: peptide substrate varied, 15 μM myristate
Description: as §1
as §3, with “(1987)].” for “(1987)]. Synthetic peptide substrates are represented by their conventional one letter amino acid code.”

[8] = substrate: C[C@H](NC(=O)[C@H](C)NC(=O)[C@H](CC(N)=O)NC(=O)CN)C(=O)N[C@@H](CO)C(=O)N[C@@H](C)C(=O)N[C@@H](CCCNC(=N)N)C(=O)N[C@@H](CCCNC(=N)N)C(N)=O; test: as above; format: biochemical, S. cerevisiae; conditions: other: peptide substrate varied, 15 μM myristate
Description: as §1
as §3, with “(1987)].” for “(1987)]. Synthetic peptide substrates are represented by their conventional one letter amino acid code.”

## CCCOCCCCCCCCCC(=O)O [10-(Propoxy)decanoic acid]
[1]
  effect on p60v-src distribution when incorporated in vivo: significant redistribution of the protein from membrane to cytosolic fractions
[2]
  hydrophobicity: reduced hydrophobicity (comparable to decanoic acid)

B1: 45 kDa E. coli NMT (NMT missing the NH2-terminal 39 residues) (Saccharomyces cerevisiae S288C) (protein)
chain: FWRTQPVKDFDEKVVEEGPIDKPKTPEDISDKPLPLLSSFEWCSIDVDNKKQLEDVFVLLNENYVEDRDAGFRFNYTKEFFNWALKSPGWKKDWHIGVRVKETQKLVAFISAIPVTLGVRGKQVPSVEINFLCVHKQLRSKRLTPVLIKEITRRVNKCDIWHALYTAGIVLPAPVSTCRYTHRPLNWKKLYEVDFTGLPDGHTEEDMIAENALPAKTKTAGLRKLKKEDIDQVFELFKRYQSRFELIQIFTKEEFEHNFIGEESLPLDKQVIFSYVVEQPDGKITDFFSFYSLPFTILNNTKYKDLGIGYLYYYATDADFQFKDRFDPKATKALKTRLCELIYDACILAKNANMDVFNALTSQDNTLFLDDLKFGPGDGFLNFYLFNYRAKPITGGLNPDNSNDIKRRSNVGVVML
notes: S2A lies in the removed part
[3]
  Km: 0.36 µM
[4]
  Km: 1.2 µM
[5]
  Km: 0.38 µM
[6]
  Km: 0.96 µM

B2: E. coli-derived S. cerevisiae NMT (Total E. coli NMT) (Saccharomyces cerevisiae S288C; S2A) (protein)
chain: MAEEDKAKKLENLLKLLQLNNDDTSKFTQEQKKAMKDHKFWRTQPVKDFDEKVVEEGPIDKPKTPEDISDKPLPLLSSFEWCSIDVDNKKQLEDVFVLLNENYVEDRDAGFRFNYTKEFFNWALKSPGWKKDWHIGVRVKETQKLVAFISAIPVTLGVRGKQVPSVEINFLCVHKQLRSKRLTPVLIKEITRRVNKCDIWHALYTAGIVLPAPVSTCRYTHRPLNWKKLYEVDFTGLPDGHTEEDMIAENALPAKTKTAGLRKLKKEDIDQVFELFKRYQSRFELIQIFTKEEFEHNFIGEESLPLDKQVIFSYVVEQPDGKITDFFSFYSLPFTILNNTKYKDLGIGYLYYYATDADFQFKDRFDPKATKALKTRLCELIYDACILAKNANMDVFNALTSQDNTLFLDDLKFGPGDGFLNFYLFNYRAKPITGGLNPDNSNDIKRRSNVGVVML
notes: intact 53 kDa (codon 2 Ser to Ala from cloning) plus 45 kDa truncated form
[7]
  Km: 65.8 µM
[8]
  Km: 0.103 µM
